Experiments:
[1] = test system: wild type (C57Bl/6J) mice; assay: Toxicity on normal hematopoiesis in wild type mice; type: in vivo; conditions: 50 mpk twice a week for two weeks
Experimental: FIG. 20A-20B. WT mice were treated with 50 mpk twice weekly of Parsatuzumab (@EGFL7) or IgG1 control. FIG. 20A. CBCs from mice harvested after treatment. FIG. 20B. Percent engraftment of treated BM (CD45.2+) transplanted into BoyJ recipient mice (CD45.1).
To assess the toxicity of Parsatuzumab on normal hematopoiesis, wild type (C57Bl/6J) mice were treated with Parsatuzumab (n=4) and IgG1 control (n=4) with the highest dose previously tested at 50 mpk twice a week for two weeks. Parsatuzumab targets both human and mouse EGFL7 protein. After two weeks of treatment, blood, spleen and BM were harvested and full phenotypic characterization was performed to assess toxicity. […] Full immunophenotypic examination of BM populations was also performed (data not shown due to space constraints). […] To functionally test the effect of Parsatuzumab on normal HSPCs, competitive repopulation BM transplantation (BMT) assays and CFU assays were performed. For competitive BMT, 2×10^6 WBM was harvested from Parsatuzumab and IgG1 treated mice (CD45.2) with 2×10^6 BoyJ (CD45.1) WBM and transplanted into lethally irradiated BoyJ recipients.

PARP1 and CASP3 cleavage = assay: PARP1 and Casp3 cleavage immunoblot, THP-1; type: cell-based, human; conditions: anti-EGFL7 treatment, western blots
Experimental: FIG. 24A-24G. EGFL7 prevents activation of NOTCH signaling in AML cells. (FIG. 24A) Overview of experiments using DLL4-FC and IgG-FC control coated plates to induce NOTCH activation. (FIG. 24B) THP-1 cells were pre-treated with 10 μM γ-secretase inhibitor (AVA), 100 μg/ml anti-EGFL7 antibody or 0.25 μM rEGFL7 for 30 min, then transferred to IgG-Fc or DLL4-Fc coated plates. After 4 h of incubation total RNA from THP-1 cells was extracted for qRT-PCR analysis of HES1 with β-ACTIN as internal control. ^###P<0.001 DLL4-FC vs IgG-FC; ***P<0.001 DLL4+AVA, DLL4+rEGFL7, and DLL4+anti-EGFL7 vs DLL4-FC. […] THP-1 cells were treated with the indicated concentration of anti-EGFL7 (@E7) then assessed for apoptosis using (FIG. 24D) AnnexinV+ staining and FACS; *P<0.05 (FIG. 24E) Immuno-blotting for PARP1 and Casp3 cleavage. (FIG. 24F) Cell differentiation was assessed by CD11B and CD14 staining 96-hours post anti-EGFL7 treatments; *P<0.05. (FIG. 24G) To determine whether activation of NOTCH by DLL4-Fc could be accentuated by anti-EGFL7 treatment, THP-1 cells were first treated with anti-EGFL7 (100 μg/ml) and then cultured on DLL4-FC or IgG-Fc coated plates and then assessed for apoptosis using AnnexinV+ staining and FACS. *P<0.05 DLL4-Fc and anti-EGFL7; vs DLL4-FC+anti-EGFL7. […]

HES1 = assay: DLL4-Fc coated plate NOTCH activation (HES1 qRT-PCR), THP-1; type: cell-based, human; conditions: pre-treated 30 min: 10 μM AVA, 100 μg/ml anti-EGFL7 or 0.25 μM rEGFL7; then 4 h; vs DLL4-FC
Experimental: FIG. 24A-24G. EGFL7 prevents activation of NOTCH signaling in AML cells. (FIG. 24A) Overview of experiments using DLL4-FC and IgG-FC control coated plates to induce NOTCH activation. (FIG. 24B) THP-1 cells were pre-treated with 10 μM γ-secretase inhibitor (AVA), 100 μg/ml anti-EGFL7 antibody or 0.25 μM rEGFL7 for 30 min, then transferred to IgG-Fc or DLL4-Fc coated plates. After 4 h of incubation total RNA from THP-1 cells was extracted for qRT-PCR analysis of HES1 with β-ACTIN as internal control. ^###P<0.001 DLL4-FC vs IgG-FC; ***P<0.001 DLL4+AVA, DLL4+rEGFL7, and DLL4+anti-EGFL7 vs DLL4-FC. (FIG. 24C) Primary AML blasts were pretreated with 10 μM γ-secretase inhibitor (AVA), 100 μg/ml anti-EGFL7 antibody or 0.25 μM rEGFL7 for 30 min, then transferred to IgG-Fc or DLL4-Fc coated plates. After 4 h of incubation, total RNA was extracted for RT-PCR analysis of HES1 mRNA with β-ACTIN as internal control. ^###P<0.001 DLL4-Fc vs IgG-Fc; *P<0.05, ***P<0.001 vs DLL4 Fc. THP-1 cells were treated with the indicated concentration of anti-EGFL7 (@E7) then assessed for apoptosis using (FIG. 24D) AnnexinV+ staining and FACS; *P<0.05 (FIG. 24E) Immuno-blotting for PARP1 and Casp3 cleavage. (FIG. 24F) Cell differentiation was assessed by CD11B and CD14 staining 96-hours post anti-EGFL7 treatments; *P<0.05. (FIG. 24G) To determine whether activation of NOTCH by DLL4-Fc could be accentuated by anti-EGFL7 treatment, THP-1 cells were first treated with anti-EGFL7 (100 μg/ml) and then cultured on DLL4-FC or IgG-Fc coated plates and then assessed for apoptosis using AnnexinV+ staining and FACS. *P<0.05 DLL4-Fc and anti-EGFL7; vs DLL4-FC+anti-EGFL7.
Total RNA was extracted using Trizol reagent (Invitrogen, Carlsbad, Calif., USA). cDNA was synthesized using SuperScript III reagents (Invitrogen) according to the manufacturer's instruction. Quantitative Real-Time RT-PCR was performed using commercially available TaqMan Gene Expression Assay primers and the 7900HT Fast Real-Time PCR System (Applied Biosystems, Foster City, Calif., USA). […]

B1: Parsatuzumab: Anti-human EGFL7 therapeutic antibody (Parsatuzumab) obtained from Creative Biolabs; blocking monoclonal antibody (antibody, chains of the INN, looked up, V domains shown)
VH: EVQLVESGGGLVQPGGSLRLSCAASGYTFIDYYMNWVRQAPGKGLEWVGDINLDNSGTHYNQKFKGRFTISRDKSKNTAYLQMNSLRAEDTAVYYCAREGVYHDYDDYAMDYWGQGTLVTVSS
VL: DIQMTQSPSSLSASVGDRVTITCRTSQSLVHINAITYLHWYQQKPGKAPKLLIYRVSNRFSGVPSRFSGSGSGTDFTLTISSLQPEDFATYYCGQSTHVPLTFGQGTKVEIK
number of CFUs and types of colonies from treated BM ([1]; vs IgG1): no significant changes in the number of CFUs or types of colonies formed
full differential complete blood counts (CBCs) ([1]; vs IgG1 control): No significant changes
immunophenotypic examination of BM populations ([1]; vs IgG1 control): no significant changes in any hematopoietic stem and/or progenitor populations
PARP1 and CASP3 cleavage (PARP1 and CASP3 cleavage): increase in PARP1 and CASP3 cleavage
DLL4-Fc-mediated NOTCH activation (HES1) (HES1): enhanced
